Substrate in this series: BHET
Particulars: 120 h.

B1: unnamed (protein)
chain: MGGSMKLRSTAMRRRFVVLVAVVMLVVAACDWRGPAPTEQSLVAARGTFTVGTLAVPTSAGFGGGTIYYPGNHDGPFGVISISPGFLGNQSSIGEWGPRLASHGFVVITINTTNGFIQPPQRSTEQRQALSYVVAQGGVSSSPIFGIVDGARRGVAGHSMGGGASLISVQSDPSIKVAVPFAPWNSSANFSAVTSAVLIFACQNDSIAPVGSHASPMYNSIPASTDKSYVSVAGGDHFCANNPTGASGTAGKWALSYFKKFIDGDTRYDPWVCGASKPATGPVLNEVRSSCPF
Take B1: the plate clearing result is “not clears the plate”.

B2: unnamed (protein)
chain: MKIDSIIKFLCTALLVTFSLGVYAGGGGGGDEPSNDGQLPAPDTCTSNCGYANGANPTLSSLQASQGQYSVGTVNVSSSVNGFGGGTIYYPTNLSGELAAIAIAPGFTNTQSAVQWWGPVLASRGFVVVTINTNGRFDFPSSRSRQLDSALNYLIYLGEQSSGAISGKVDKNRLATMGFSMGGGGALESASRNRLSATVPLAPWYSGSNPFNQINVPSMIMACENDGTAGVNTHASPFYNRIPGSTDKVYLELNNGSHNCATGQDSNYRTTISTYGVSWLKRFLDKDSRYNQFLCGPNHVANARISEFRDTCNF
As for B2, the plate clearing entry is reported as “not clears the plate”.

B3: unnamed (protein)
chain: MIRFKTGALTNTISLCLVVALGCGGGETPETSGPPPATQTNPTAQAGATATKPTGTAGAAAPTNTGRPMMTTPPTTTTPTMTTPATAGSAAPAAGSGGTPAATGAGGAPAAEAGSGAAGSAATAGSGAEDEAAAGKGGTEATGDKNHWIRGDDPPADLSGARPGPYKVERYTDGYRNGPAYADSTINYPVDAEPPFALVVVVPGFVSPQSSIASWGPFLASHGIVTMTIGTNLPTDLPETRKDALLDAMQSLKEENTREGSPLKGKLDTSYTATMGWSMGGGGTLLVANENPELKATISLCGWNPGYPYSKIKAPALMFASLGDPLAGGQSQGFYRSIPDETPKMLIEVGAGDHFVANNPASTSGVIGRYGLAWLKVYLEGDERYRKFLLEKPAVP
For B3, the plate clearing result was “not clears the plate”.

B4: unnamed (protein)
chain: MRTAKDFARGNPLARLCILLALAVFPALSHAQTVIFQEPFNVGIGSFTADGTVNGGGTGASMHGRIQGYSTITSPAINTTGFTNLQLAWTQMCLNSDAGEACQLWYSVNNITWDLVYSTPFAPFNSPASIALPAAAAGQSQLRLRFVRLANSFEEVYDVDNISLTGTAGGGGTTSGSTSGGTSGGGGTPCQNGPAPSATSVQGDGPFTVGTYVVPNPSGYKAGTIYYPTNTVSGACTKFAGIVTMPGYQGTQNNLSWLGPRLASNGFVVINVDTNTLSDSPDQRGAEILSALNQLVSLSNASGNPISGKVDSAKLGAMGHSMGGGGTLVAARNAMIKAAIPMAPYHNTTTNFPDVHAPTLVVTCQGDPSAPAATYGRPMYNSLTTEKAYLELTTTDGHLCVMTGYGNKAVQSRYMTSWMKRWLDGDTRYTQFLCGTTSGSNGVTTWADTCPY
For B4, the plate clearing result is recorded as “not clears the plate”.

B5: unnamed (protein)
chain: MPKYPFYSQWIVAIGALVFSINASAVTLDEVAATNKLTIKEQSTKIVSTPIASAVAITSPVSTPAVPSNCIADSIITAANLSDTRDKGPFSVAKKAVPRQLANGFGGGTIYYPTNAGGCGLLGGIAVIPGYVSYESSIKWWGPRLASWGFVVITIDTNSIYDDPDSRAAQLSAALDHMLRDNTVGAQIDSTRLGAIGWSMGGGGALQLATKRQTVRAIIPQTPYHDKDYGEMNTPALFITCQNDRIASNKKYSSRFYDKATGAKMKIEIKNGSHFCPSYRFNEILLSKPGIAWMHRYINGDTRFDQFLCSNDNYGNNPRISAYDYKLS
For the protein B5, the plate clearing result is given as “not clears the plate”.

B6: unnamed (protein)
chain: MEISNTRQLAVRSRARSRAETGGRKWTIGLGLLLLAAVAHAQTNPYAKGPDPTSSLLNATRGPFSITSTSVSRFVSGFGGGTIYYPTTSGSYAAIAISPGFTATQSSIAWLGQRIASHGFVAITINTNSVYDQPASRATQLMAALRYLTNSSTSAVRSRVDANRLGVAGHSMGGGGALIAARDNPSLKASVPLTAWSTSKNFSTVQVPTLVVGAENDSVAPVSSHSIPFYTSLSSFLEKAYAELNNASHFAPNSTNTPIGRYSVAWVKRFMDNDTRYSPFLCGAPHQSYATSTVFSEYRSTCPY
With B6, the plate clearing result is listed as “not clears the plate”.

B7: unnamed (protein)
chain: MTTIIAKLAIAASAAVLATAAFAQQQGPEQTAAQLEAGKGPFTVATAKIATPSGYGGGTVYYPTNASGKVGLIVVAPGFTETQSAMNMWGPILASNGFAVINIDTKSTLDQPPARATQMMAALKQVSDLSKTTASPYYNKIDVTRQAVMGHSMGGGGTLVAATANPALKAAIPAAPWSLATKNFPTLAVPTMIFACQSDVIAPVSGHADRFWASFNKQLPSAFAEYAGAGHQCPTSQGGADRKLVFSKLGIAWFKRFVDGDTRYTQFITNDSRLSRFLTNGSF
As to B7, the plate clearing result is “not clears the plate”.

B8: unnamed (protein)
chain: MTVCKLRMFTAQKHPVTNKIFGGSSMSSRKQDLRLRQLLYCLLLSTALGGAVVHAQTAPATIAQEAFNNGFGIFTAAGSATANGQAVLAGTFGGTDGSITSSPISTQGFSNITVSFDRTTVGLDNGEAGVAEFSVAGGAFTAIESAQTASGRMSFALAASAANQAQLRLRFRVVASRANETYSVDNVLVQGVAAGAQPPPPDPQPTNNPFQRGPTPSAATLEAAQGPFAVATTTVPNPSGFGAGTIYFPTSTTEGPFAAVSIAPGFSERQANVNWWGPRLASNGFVVVVIDTNSTSDAPASRATQLVAALRQVVTLSGTSGSPVFNKVDGNRLGVMGHSLGGGGTLIAAQNNPTLKAAIPFAPFNNDTNFSSVVVPTLIIACENDNVAPVADHASPFYNSFAASLDKAFLEIAGGSHSCANSGNNNMPILGKYGVSWMKLFMDNDTRYSPFLCGAPHQADLSGTQISEYRESCPY
Turning to B8, the plate clearing result is listed as “not clears the plate”.

B9: unnamed (protein)
chain: MKTTISPIKGLAIAVAIAMATVAQPALSQTSPPTSASLNATSGPLSVSTASVLLPVGFGGGTIYYPTVAGQYGVIAISPGFTATQSSIAWLGRRIATHGFVVITMDTNTTLDQPDSRATQLMAALRYVLNSSGTAVRSRVDTTRLAVAGHSMGGGGSLIAARDNPTLKASYPMTPWNLSTNFSTVRVPTMIIGADGDTIAPVATHARPFYASLPSTTFKAYGELNNGTHFSPNATSTPIGRYAVAWMKRFVDGDARYSPFLCGAEHTSYATALVFERYNQNCPY
As for B9, the plate clearing result is listed as “not clears the plate”.

B10: unnamed (protein)
chain: MPGYQGTQQNLQWLAPRLASWGFVVINVGTTTLSDDPASRGRQISAAGTQLLALGNATGNPVSGKTDGTLGAVGHSMGGGGVMAALRDDARFRAGVPTAPYYPNMNFSQVTDPTFFLTCQSDPVAHGNTYAAPWYTSMTQAEKLYIEVPGDHLCPMTGSGDKAKQGKWIVSFLSLWLRADTRFSPFLCGPVRDADKNNTSLVTRWMDTCQF
As to B10, the plate clearing result is on record as “not clears the plate”.

B11: unnamed (protein)
chain: MSSDKRLLFTLLHRTLLACALTFSAALPACGEEDPKEVTDSSSDDDDETPVDGDTTGDDDPEPMTMKDAGKSSVKDAGKPPPTPAVDAGSTAPKDKDSGTVGGIDAGPAKDAGTVVTPPTTAGDALVRGDAPTEKSASAKGPYAVKTYTSGYPDLPGYLDSTIHYPEGAQPPFAAVVIVPGFVSAQSSIQAWGPFFASHGIVTMTIGTNTPVDQPPMREAALLDALKTVKSENTREGSPLKDKLDLSRLAGMGWSMGGGGALLLGEHNPELKAVIALCPWNPGYSYAKIKMPTLFLAAQADTLAGGQSQGFYSSIPNSVPKILYEIAGADHWHNNDPANLQGAVGRYGLAWLKVFLEGDERYRDLLKVKGPSSSDWQSNVQ
Turning to B11, the plate clearing entry is given as “not clears the plate”.

B12: unnamed (protein)
chain: MNEVEPVNKSFLKKLSIGTGVLLVSMNALSWTPSPAPTPDPTPDPTPCQGDCDFTRGPNPTVSSVESSTGPYSVRTQSIASSVSGFGGGTIHYPTNTSGKMGAIAIAPGFLAPESSIIWWGPRLASHGFVVITIATNSVFDQPSSRGTQIGRALDYVISQSNASNSAISGMVDSTRVGAMGWSMGGGGALRLASGDRLSAAIPLAPWHQGGNSFNQLETPTLIIACENDNVAPVDRHASAFYNAIPSTTDKALLEIDGGAHSCANGDGSNDAVLGKYGISWMKRFIDNDLRYDQFLCGPNHAANSAVSEYRETCDY
Take B12: the plate clearing result is given as “not clears the plate”.

B13: unnamed (protein)
chain: MTGSTTTGGRPAPPSPPSQSSTTCTTSAVASMPILTPSRVTSAHSVSSCSARNDAGGTCTALTPVVLWAVSAVTTAMPYPPAAATDFRSAWIPAPPPGSDPATDRTLGTCSGDETVGSVDGMGDIPSSVRTASGSTGVISAPGGRTPCREDTVAPVRETVSHRTRPCASPARLPMPRHGVRAEPVGAVIRQRGRTMQHSSIRSRAARRVTAALASLTVAVGLGAASGSVAQAADNPYERGPAPSESSIEATRGHYAVSERNVSRFVSGFGGGTIYYPTTTSDGTFGAVVVSPGYTGTESSIDWLGPRLASQGFVVLTMATNTIYDQPDSRARQLQAALDYLTGSSPVADRIDDDRLALMGHSMGGGGTLRAVDDNPDIKAAIPMTPWHTKKNWSTVTTPTLVFAAENDSVARHETHAEPFYNSFSDDLPKAYLELDGASHFAPNFSNTTIAKYSISWLKRFVDDDSR
For the protein B13, the plate clearing result was “not clears the plate”.

B14: unnamed (protein)
chain: MTPTLCRPLAAVLTSAAFAALTAVSASALAQTPQEPTEASLNATAGPFSVATESVRAPRGFGGGTIYYPTAAGRYGVVAISPGFTATQSSIAWLGRRMASHGLVVITMNTNSTLDQPASRANQLMAALNHVVSASGAAVQSRADGTRRAVAGHSMGGGGALIAARDNATLRAALPLTPWNTTTDFSGVRVPTLIVGADGDGVASVTRHARPFYASLPNATAKAYGELNSASHFTPNSTNTPIGRYGVTWMKRFVDADTRYSPFLCGAAHLAYATPAVFDRYQNNCPY
As for B14, the plate clearing result is reported as “not clears the plate”.

The values above are taken from the PETadex activity labels.
